# Laboratory results published in PMC4889046 (PLoS ONE, 2016).
# B1: APOBEC4 fused to three C-terminal HA-tags (A4-HA) (natural protein, human, UniProt Q8WW27 1-367, looked up)
# chain: MEPIYEEYLANHGTIVKPYYWLSFSLDCSNCPYHIRTGEEARVSLTEFCQIFGFPYGTTFPQTKHLTFYELKTSSGSLVQKGHASSCTGNYIHPESMLFEMNGYLDSAIYNNDSIRHIILYSNNSPCNEANHCCISKMYNFLITYPGITLSIYFSQLYHTEMDFPASAWNREALRSLASLWPRVVLSPISGGIWHSVLHSFISGVSGSHVFQPILTGRALADRHNAYEINAITGVKPYFTDVLLQTKRNPNTKAQEALESYPLNNAFPGQFFQMPSGQLQPNLPPDLRAPVVFVLVPLRDLPPMHMGQNPNKPRNIVRHLNMPQMSFQETKDLGRLPTGRSVEIVEITEQFASSKEADEKKKKKGKK
# notes: also called A4-3xHA; pA4-HA; not shown: 3xHA, C-terminal, kept
# Molecular target: the molecule itself
# Test: cross-linking
protein,measurement,value
B1,stoichiometry N,2
